According to publication PMC7835520:
Values belong to the substance of their own block, whether it stands above or below them.

Assays:
Test in all cases: SEC; cleared, microfiltered serum-containing supernatant of transfected Bosc23 cells; Superdex 200 10/300 GL in PBS at 4°C; fractions TCA precipitated and immunoblotted with α-Shh or α-StrepII antibodies; total eluted protein set to 100%, monomeric (< 80 kDa) versus multimeric (> 80 kDa)
[1] = target: Shh^HA, Shh with an HA tag inserted into the C-terminal peptide (Mus musculus)
[2] = target: Shh^Strep, Shh with a StrepII tag inserted into the C-terminal peptide (Mus musculus)
[3] = target: Sonic hedgehog (Shh), untagged (Mus musculus)
[4] = target: ^HAShh^HA, Shh with HA tags in both terminal peptides (Mus musculus)

percent of eluted protein < 80 kDa (monomeric) [1]: 65%
Substance: Shh^HA, Shh with an HA tag inserted into the C-terminal peptide (ligand)

percent of eluted protein < 80 kDa (monomeric) [2]: 80%
Substance: Shh^Strep, Shh with a StrepII tag inserted into the C-terminal peptide (ligand)

percent of eluted protein < 80 kDa (monomeric) [3]: 15%
Substance: Sonic hedgehog (Shh), untagged (ligand)

percent of eluted protein < 80 kDa (monomeric) [4]: 56%
Substance: ^HAShh^HA, Shh with HA tags in both terminal peptides (ligand)
